According to patent publication US20120277286A1, “COMPOSITIONS AND METHODS FOR THE TREATMENT OR PREVENTION OF MITOCHONDRIAL DISEASES” (The Government of the USA, as represented by the Secretary, …, priority 2009, published 2012):

Legend:
M17 cells = experiment: Mitochondrial mass by Mitotracker Green staining; format: cell-based, human; settings: control shRNA (CCCP line) or PINK1 shRNA
Description: To test whether PINK1 expression affects mitochondrial turnover in the presence of endogenous levels of Parkin, the control shRNA and PINK1 shRNA M17 cells (which express moderate levels of Parkin) were treated with DMSO or CCCP for 24 hours and measured their relative mitochondrial mass by Mitotracker Green (MTG) staining and flow cytometry. MTG, a sensitive measure of mitochondrial mass, stains mitochondrial lipid in a membrane potential independent manner and has been used to measure mitochondrial mass of depolarized mitochondria previously (Hristova et al., J Biol Chem. In press; Whitworth et al., Dis Model Mech 1: 168-174, 2008). […] To more directly assay mitochondrial turnover in control and PINK1 shRNA M17 cells, the cells were pulsed with MTG and loss of MTG intensity was tracked at 0, 16, and 24 hours in the presence of CCCP. Consistent with the hypothesis that endogenous PINK1 promotes the degradation of depolarized mitochondria, Mitotracker Green intensity decreased more slowly in PINK1 shRNA cells when compared with control shRNA cells, treated with CCCP (0.58±0.07 vs. 0.33±0.07 relative MTG intensity at 24 hours) (FIG. 12F).

Cytochrome c oxidase = Cytochrome c oxidase activity assay; format: cell-based, human
Description: Cells grown on 10 cm diameter dishes were collected in extraction buffer [10 mM HEPE, 10 mM […], 1.5 mM MgCl2,4 mM NaF, 100 μM NaOVac, 1× protease cocktail (Roche)] and lysed by 20 passages through a 25 gauge needle. Samples were spun at 500×g for 5 minutes to pellet nuclei. The supernatant was then spun at 8000 rpm for 10 minutes to pellet the mitochondrial rich heavy membrane fraction. The pellet was washed with extraction buffer once and resuspended in 1× enzyme dilution buffer containing 1 mM n-dodecyl-p-maltoside (CYTOCX1 kit, Sigma). The COXI activity assay was performed according to the manufacturer's instructions. Fresh 10 μg of mitochondrial protein and 10 μM Ferrocytochrome c substrate were used in each assay. SpectraMax plus^384 (Molecular Devices) was used to measure A550 every 10 seconds for […] The Vmax of each sample was calculated by SOFTmax PRO (Molecular Devices). The mean and standard deviation were calculated from three experiments

N#CC(C#N)=NNc1cccc(Cl)c1 [CCCP, carbonyl cyanide m-chlorophenylhydrazone]
relative MTG intensity (M17 cells; M17 cells pulsed with MTG, CCCP, at 24 hours): 0.33±0.07
change in mitochondrial mass, CCCP vs. DMSO (M17 cells; M17 cells, 24 hours, MTG flow cytometry): −22.4±12.6%

B1: YFP-Parkin: YFP-tagged Parkin E3 ligase expressed from a transfected vector (protein, UniProt O60260 1-465, looked up)
E3 ubiquitin-protein ligase …: MIVFVRFNSSHGFPVEVDSDTSIFQLKEVVAKRQGVPADQLRVIFAGKELRNDWTVQNCDLDQQSIVHIVQRPWRKGQEMNATGGDDPRNAAGGCEREPQSLTRVDLSSSVLPGDSVGLAVILHTDSRKDSPPAGSPAGRSIYNSFYVYCKGPCQRVQPGKLRVQCSTCRQATLTLTQGPSCWDDVLIPNRMSGECQSPHCPGTSAEFFFKCGAHPTSDKETSVALHLIATNSRNITCITCTDVRSPVLVFQCNSRHVICLDCFHLYCVTRLNDRQFVHDPQLGYSLPCVAGCPNSLIKELHHFRILGEEQYNRYQQYGAEECVLQMGGVLCPRPGCGAGLLPEPDQRKVTCEGGNGLGCGFAFCRECKEAYHEGECSAVFEASGTTTQAYRVDERAAEQARWEAASKETIKKTTKPCPRCHVPVEKNGGCMHMKCPQPQCRLEWCWNCGCEWNRVCMGDHWFDV
modifications: YFP fusion
notes: YFP-tagged Parkin E3 ligase expressed from a transfected vector
COX activity relative to parental 143B cells (Cytochrome c oxidase; COXICA65 cybrid, YFP-Parkin for 45 days): 65.8±16.14%
COX activity relative to parental 143B cells (Cytochrome c oxidase; COXICA65 cybrid, YFP-Parkin for 60 days): 96.90±8.49%
COX activity relative to parental 143B cells (Cytochrome c oxidase; Parkin-enriched cybrid cells stably at ˜50% wild-type mtDNA, 67 days without selection): 55.7±29.2%
